What was measured:
[1] = target: hcGAS catalytic domain WT (Homo sapiens, UniProt Q8N884 SEQ:1-366); experiment: EMSA; gradient dialysis to 50 mM KCl, 4 C; preferentially higher-order oligomers; details: tags: untagged (6xHis-SUMO2 removed with SENP2)
Method: (§1) cGAS-DNA complexes were stably assembled using a method adapted from a nucleosome assembly gradient dialysis protocol (Lee and Narlikar (2001) Current protocols in molecular biology Chapter 21, Unit 21.26), and complex formation was measured by electrophoretic mobility shift analysis. Briefly, a concentration gradient of recombinant protein (0.2, 0.4, 2, 10 μM) was incubated with 45 bp dsDNA (2 μM) in a high-salt buffer containing 20 mM HEPES-NaOH pH 7.8, […], 1 mM DTT at 4° C. for 20 min. The reconstitution mixture was then transferred into 8-10 kDa molecular weight cut-off dialysis tubing (Spectrum Labs), and placed into a beaker of the high-salt buffer. The KCl concentration was reduced gradually by slowly replacing high-salt buffer with low-salt buffer (20 mM HEPES-KOH pH 7.5, 50 mM KCl, 1 mM DTT) with a peristaltic pump (Bio-Rad) at a rate of […] for 48 hr at 4° C. After gradient dialysis, reactions were supplemented to 5% glycerol, and subsequently separated on a 2% agarose gel in 0.5×TBE buffer at 4° C. […] Alternatively, where indicated in FIGS. 8A and 8C, cGAS-DNA complexes were assembled by incubating directly in reaction buffer containing 20 mM HEPES-NaOH pH 7.8, […], 1 mM DTT at 4° C. for 20 min and analyzed by electrophoretic mobility shift analysis as indicated above. […]

[2] = target: mcGAS catalytic domain WT (UniProt Q8C6L5 SEQ:1-361); experiment: EMSA; gradient dialysis to 50 mM KCl, 4 C; minimal complex plus higher-order oligomers; details: tags: untagged (6xHis-SUMO2 removed with SENP2)
Method: as §1

[3] = target: mcGAS humanized K187/L195 (UniProt Q8C6L5 SEQ:1-361, N172K,R180L); experiment: EMSA; gradient dialysis to 50 mM KCl, 4 C; low-MW complex ablated, higher-order oligomers retained; details: tags: untagged (6xHis-SUMO2 removed with SENP2)
Method: as §1

[4] = target: T1, hcGAS K187N/L195R (hcGAS*) (Homo sapiens, UniProt Q8N884 SEQ:1-366); experiment: EMSA; gradient dialysis to 50 mM KCl, 4 C; stable low-MW complex restored, oligomers unaffected; details: tags: untagged (6xHis-SUMO2 removed with SENP2); chain copies: 2 (2:2 complex with DNA, stated)
T1 chain: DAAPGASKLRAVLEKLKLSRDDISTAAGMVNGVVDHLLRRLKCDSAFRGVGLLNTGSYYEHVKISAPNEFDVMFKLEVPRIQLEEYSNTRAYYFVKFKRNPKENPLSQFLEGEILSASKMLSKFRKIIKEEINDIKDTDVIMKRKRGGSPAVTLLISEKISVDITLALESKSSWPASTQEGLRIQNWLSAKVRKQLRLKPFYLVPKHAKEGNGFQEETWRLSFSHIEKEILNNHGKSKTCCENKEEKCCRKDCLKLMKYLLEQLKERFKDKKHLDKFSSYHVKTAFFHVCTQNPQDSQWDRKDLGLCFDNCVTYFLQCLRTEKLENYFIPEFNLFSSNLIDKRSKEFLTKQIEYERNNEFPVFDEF
Method: as §1

Measured: binding result

mcGAS catalytic domain WT, sequence (Q8C6L5 147-507): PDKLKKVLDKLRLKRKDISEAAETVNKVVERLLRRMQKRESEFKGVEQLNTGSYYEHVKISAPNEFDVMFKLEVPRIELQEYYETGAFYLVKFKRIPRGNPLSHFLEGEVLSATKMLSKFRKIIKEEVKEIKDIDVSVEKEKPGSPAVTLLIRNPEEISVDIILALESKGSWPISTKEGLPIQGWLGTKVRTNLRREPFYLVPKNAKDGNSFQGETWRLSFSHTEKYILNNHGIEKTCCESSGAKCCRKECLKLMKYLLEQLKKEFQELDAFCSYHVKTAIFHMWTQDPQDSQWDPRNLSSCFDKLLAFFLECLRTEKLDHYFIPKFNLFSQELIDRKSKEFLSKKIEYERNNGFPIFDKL
mcGAS humanized K187/L195, sequence (Q8C6L5 147-507 N172K/R180L): as the sequence (Q8C6L5 147-507) above, with N26K, R34L counted along it

B1: 45 bp interferon stimulatory DNA (dsDNA)
DNA 1: TACAGATCTACTAGTGATCTATGACTGATCTGTACATGATCTACA
DNA 2: TGTAGATCATGTACAGATCAGTCATAGATCACTAGTAGATCTGTA
binds: all assays above

— patent US20210324351, “STRUCTURE OF THE HUMAN CGAS-DNA COMPLEX AND USES THEREOF” (Presodent and Fellows of Harvard College, published 2021)
